From patent US20260356960 (published 2026)
Where no end group is shown, it is not given here.

Legend:
sST2 recombinant = molecular target: T1, sST2 recombinant (human); experiment: ELISA
T1 chain: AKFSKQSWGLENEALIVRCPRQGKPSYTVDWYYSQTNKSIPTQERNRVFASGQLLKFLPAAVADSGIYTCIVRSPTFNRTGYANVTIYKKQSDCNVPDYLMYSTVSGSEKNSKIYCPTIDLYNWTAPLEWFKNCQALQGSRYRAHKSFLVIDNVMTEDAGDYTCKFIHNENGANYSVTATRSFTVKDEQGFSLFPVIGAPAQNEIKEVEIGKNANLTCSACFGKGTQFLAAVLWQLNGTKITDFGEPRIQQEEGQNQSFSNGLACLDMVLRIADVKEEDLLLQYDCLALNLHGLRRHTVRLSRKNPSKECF

SKECF peptide = molecular target: T2, SKECF peptide (human, not fully specified); experiment: SPR
T2 chain: SKECF

B1: scFv-αsST2 (scFv 96-1) (antibody)
chain: MQVQLQQWGAGLLKPSETLSLTCAVYGGSFSGYYWSWIRQPPGKGLEWIGEINHSGSTNYNPSLKSRVTVSLDTSKNQFSLKLSSVTAADTAVYYCARGRGLVRFDSWGQGTTVTVSSGGGGSGGGGSGGGGSEIVLTQSPGTLSLSPGDRATLSCRASQFVGSSSVAWYQQRPGQAPRLLIYAAVSRASGIPDRFSGGGSGTDFTLTISRLEPEDSAVYYCLQYGSALYTFGQGTKLEIK
modifications: listing feature
Kd (sST2 recombinant): 23 µM

B2: scFv-αsST2 (scFv 96-1) (antibody)
chain: MQVQLQQWGAGLLKPSETLSLTCAVYGGSFSGYYWSWIRQPPGKGLEWIGEINHSGSTNYNPSLKSRVTVSLDTSKNQFSLKLSSVTAADTAVYYCARGRGLVRFDSWGQGTTVTVSSGGGGSGGGGSGGGGSEIVLTQSPGTLSLSPGDRATLSCRASQFVGSSSVAWYQQRPGQAPRLLIYAAVSRASGIPDRFSGGGSGTDFTLTISRLEPEDSAVYYCLQYGSALYTFGQGTKLEIK
Kd (SKECF peptide): 1.71 µM
